Assay results taken from publication PMC5081176.

B1: pol κ (Homo sapiens) (protein)
chain: MDSTKEKCDSYKDDLLLRMGLNDNKAGMEGLDKEKINKIIMEATKGSRFYGNELKKEKQVNQRIENMMQQKAQITSQQLRKAQLQVDRFAMELEQSRNLSNTIVHIDMDAFYAAVEMRDNPELKDKPIAVGSMSMLSTSNYHARRFGVRAAMPGFIAKRLCPQLIIVPPNFDKYRAVSKEVKEILADYDPNFMAMSLDEAYLNITKHLEERQNWPEDKRRYFIKMGSSVENDNPGKEVNKLSEHERSISPLLFEESPSDVQPPGDPFQVNFEEQNNPQILQNSVVFGTSAQEVVKEIRFRIEQKTTLTASAGIAPNTMLAKVCSDKNKPNGQYQILPNRQAVMDFIKDLPIRKVSGIGKVTEKMLKALGIITCTELYQQRALLSLLFSETSWHYFLHISLGLGSTHLTRDGERKSMSVERTFSEINKAEEQYSLCQELCSELAQDLQKERLKGRTVTIKLKNVNFEVKTRASTVSSVVSTAEEIFAIAKELLKTEIDADFPHPLRLRLMGVRISSFPNEEDRKHQQRSIIGFLQAGNQALSATECTLEKTDKDKFVKPLEMSHKKSFFDKKRSERKWSHQDTFKCEAVNKQSFQTSQPFQVLKKKMNENLEISENSDDCQILTCPVCFRAQGCISLEALNKHVDECLDGPSISENFKMFSCSHVSATKVNKKENVPASSLCEKQDYEAHPKIKEISSVDCIALVDTIDNSSKAESIDALSNKHSKEECSSLPSKSFNIEHCHQNSSSTVSLENEDVGSFRQEYRQPYLCEVKTGQALVCPVCNVEQKTSDLTLFNVHVDVCLNKSFIQELRKDKFNPVNQPKESSRSTGSSSGVQKAVTRTKRPGLMTKYSTSKKIKPNNPKHTLDIFFK
B2: pol η (Homo sapiens) (protein)
chain: MATGQDRVVALVDMDCFFVQVEQRQNPHLRNKPCAVVQYKSWKGGGIIAVSYEARAFGVTRSMWADDAKKLCPDLLLAQVRESRGKANLTKYREASVEVMEIMSRFAVIERASIDEAYVDLTSAVQERLQKLQGQPISADLLPSTYIEGLPQGPTTAEETVQKEGMRKQGLFQWLDSLQIDNLTSPDLQLTVGAVIVEEMRAAIERETGFQCSAGISHNKVLAKLACGLNKPNRQTLVSHGSVPQLFSQMPIRKIRSLGGKLGASVIEILGIEYMGELTQFTESQLQSHFGEKNGSWLYAMCRGIEHDPVKPRQLPKTIGCSKNFPGKTALATREQVQWWLLQLAQELEERLTKDRNDNDRVATQLVVSIRVQGDKRLSSLRRCCALTRYDAHKMSHDAFTVIKNCNTSGIQTEWSPPLTMLFLCATKFSASAPSSSTDITSFLSSDPSSLPKVPVTSSEAKTQGSGPAVTATKKATTSLESFFQKAAERQKVKEASLSSLTAPTQAPMSNSPSKPSLPFQTSQSTGTEPFFKQKSLLLKQKQLNNSSVSSPQQNPWSNCKALPNSLPTEYPGCVPVCEGVSKLEESSKATPAEMDLAHNSQSMHASSASKSVLEVTQKATPNPSLLAAEDQVPCEKCGSLVPVWDMPEHMDYHFALELQKSFLQPHSSNPQVVSAVSHQGKRNPKSPLACTNKRPRPEGMQTLESFFKPLTH
B3: pol ι (Homo sapiens) (protein)
chain: MEKLGVEPEEEGGGDDDEEDAEAWAMELADVGAAASSQGVHDQVLPTPNASSRVIVHVDLDCFYAQVEMISNPELKDKPLGVQQKYLVVTCNYEARKLGVKKLMNVRDAKEKCPQLVLVNGEDLTRYREMSYKVTELLEEFSPVVERLGFDENFVDLTEMVEKRLQQLQSDELSAVTVSGHVYNNQSINLLDVLHIRLLVGSQIAAEMREAMYNQLGLTGCAGVASNKLLAKLVSGVFKPNQQTVLLPESCQHLIHSLNHIKEIPGIGYKTAKCLEALGINSVRDLQTFSPKILEKELGISVAQRIQKLSFGEDNSPVILSGPPQSFSEEDSFKKCSSEVEAKNKIEELLASLLNRVCQDGRKPHTVRLIIRRYSSEKHYGRESRQCPIPSHVIQKLGTGNYDVMTPMVDILMKLFRNMVNVKMPFHLTLLSVCFCNLKALNTAKKGLIDYYLMPSLSTTSRSGKHSFKMKDTHMEDFPKDKETNRDFLPSGRIESTRTRESPLDTTNFSKEKDINEFPLCSLPEGVDQEVFKQLPVDIQEEILSGKSREKFQGKGSVSCPLHASRGVLSFFSKKQMQDIPINPRDHLSSSKQVSSVSPCEPGTSGFNSSSSSYMSSQKDYSYYLDNRLKDERISQGPKEPQGFHFTNSNPAVSAFHSFPNLQSEQLFSRNHTTDSHKQTVATDSHEGLTENREPDSVDEKITFPSDIDPQVFYELPEAVQKELLAEWKRAGSDFHIGHK

Assays:
Test in all cases: purified protein
Type in all cases: biochemical, Homo sapiens
purified protein [1] = substrate: Nc1ccn([C@H]2C[C@H](O)[C@@H](COP(=O)(O)OP(=O)(O)OP(=O)(O)O)O2)c(=O)n1; details: opposite O2-Me-dT template, Mg2+, pH 8.0, 37 °C
purified protein [2] = substrate: Nc1nc2c(ncn2[C@H]2C[C@H](O)[C@@H](COP(=O)(O)OP(=O)(O)OP(=O)(O)O)O2)c(=O)[nH]1; details: opposite O2-Me-dT template, Mg2+, pH 8.0, 37 °C
purified protein [3] = substrate: Nc1ncnc2c1ncn2[C@H]1C[C@H](O)[C@@H](COP(=O)(O)OP(=O)(O)OP(=O)(O)O)O1; details: opposite undamaged template dT (P15/T24), Mg2+, pH 8.0, 37 °C

Row | Protein | Km (purified protein [1]) | kcat (purified protein [1]) | kcat/Km (purified protein [1]) | Km (purified protein [2]) | kcat (purified protein [2]) | kcat/Km (purified protein [2]) | Km (purified protein [3]) | kcat/Km (purified protein [3]) | kcat (purified protein [3])
1 | B1 | 160 ± 30 µM | 0.00112 ± 0.0001 s⁻¹ | 6.83 M⁻¹ s⁻¹ | 64 ± 12 µM | 0.000917 ± 6.67e-05 s⁻¹ | 14.3 M⁻¹ s⁻¹ | 1.4 ± 0.1 µM | 53300 M⁻¹ s⁻¹ | 
2 | B2 | 130.2 ± 11.4 µM | 0.00113 ± 5e-05 s⁻¹ | 8.67 ± 0.333 M⁻¹ s⁻¹ | 38.4 ± 1.8 µM | 0.00065 ± 1.67e-05 s⁻¹ | 17.5 ± 0.667 M⁻¹ s⁻¹ | 5.3 ± 0.3 µM | 154000 ± 3830 M⁻¹ s⁻¹ | 0.817 ± 0.0333 s⁻¹
3 | B3 | 93 ± 14 µM | 0.00102 ± 6.67e-05 s⁻¹ | 10.8 ± 1 M⁻¹ s⁻¹ | 46 ± 2 µM | 0.0019 ± 3.33e-05 s⁻¹ | 41.7 ± 1.67 M⁻¹ s⁻¹ | 2.6 ± 0.4 µM | 51200 ± 4500 M⁻¹ s⁻¹ | 0.133 ± 0.01 s⁻¹
